Experiment in all cases: SPR
(In general: SPR reads the build-up and loss of mass on a sensor chip optically.)

For experiment [1], the target named is Core.BaL-GT1 (germline-targeting variant of core gp120) (HIV-1 strain BaL (from the name)).
Experiment [2] concerns the target Core.HXB2 (core gp120 of HIV-1 strain HxB2, wild-type CD4 binding site) (HIV-1 strain HxB2).
Experiment [3] has as its target eOD-GT6 (germline-targeting engineered outer domain of gp120) (HIV-1 strain HxB2).

Take 3BNC60 (mature) (antibody): the Kd (in general, a measure of binding affinity in units of concentration) in experiment [1] is 4 nM.
In experiment [2], 12A12 (mature) (antibody) showed a Kd of 6 nM.
Regarding “GL-3BNC60 (predicted germline precursor of 3BNC60) (antibody)”, the Kd in experiment [2] was above 100000 nM.
Same read-out and setting: to “GL-12A12 (predicted germline precursor of 12A12) (antibody)” belongs above 100000 nM.
For “GL-NIH45-46 (predicted germline precursor of NIH45-46) (antibody)”, the Kd in experiment [1] is above 100000 nM.
For the substance “GL-PGV04 (predicted germline precursor of PGV04) (antibody)”, the Kd in experiment [1] and in experiment [2] was above 100000 nM in each case.
Take “GL-PGV19 (predicted germline precursor of PGV19) (antibody)”: the Kd in experiment [2] is above 100000 nM; in experiment [3] it was 19 nM.
On to “GL-PGV20 (predicted germline precursor of PGV20) (antibody)”, for which the Kd in experiment [2] was above 100000 nM.
In experiment [2], “GL-VRC-CH31 (predicted germline precursor of VRC-CH31) (antibody)” returned a Kd above 100000 nM.
For PGV20 (mature) (antibody), the Kd in experiment [1] was found to be 4 nM; in experiment [2] it was 19 nM; in experiment [3] it was 6 nM.

Source of the values: article PMC3689846.
